Laboratory results reported in US7871610B2, “Antibodies to Tie1 ectodomain” (Dyax Corp., priority 2003, dated 2011).
Entries after “also recorded” stand apart in the source; their conditions may differ. One block for each molecule: values may come before it.

What was measured:
[1] = test system: SW-480 (colorectal cancer) cells; assay: SW-480 colorectal cancer xenograft in nu/nu mice; type: in vivo, mouse; details: average per group
Method: Mice (nu/nu) were implanted subcutaneously with 5×10^6 SW-480 (colorectal cancer) cells. After 12 days, when tumors reached approximately 100-200 mg, the mice were separated into 5 groups and treated with the following agents (or left untreated): • 1—Untreated • 2—Vehicle (PBS) • 3—Cisplatin (4 mg/kg/, IV, q2d×5 times) • 4—A2-SV (negative control antibody @ 10 mg/kg, IP, q2d×14 times) • 5—DX-2220 (anti-Tie-1 antibody @ 10 mg/kg, IP, q2d×14 times)
Throughout the study, the length (L) and width (W) of any tumors that developed were measured in millimeters using calibrated vernier calipers, where L is the longer of the two dimensions. When applicable, tumor weight (M) in milligrams was calculated by using the formula associated with a prolate ellipsoid: M=(L×W^2)/2. […] A2-SV is an isotype matched (IgG1) negative control antibody that binds strepavidin.

[2] = test system: bFGF-induced angiogenesis; assay: […] plug assay, bFGF-induced angiogenesis in NMRI nu/nu mice; type: in vivo, mouse; details: first assay, day 7; bFGF 80 ng/ml; antibody 10 μg/ml in plug; E3 = germlined variant, IgG4
Method: The germlined variant of the E3 IgG antibody was evaluated in an in vivo assay for angiogenesis induced by bFGF in […]™ plugs. Growth factor reduced […]™ (BD Biosciences, catalog # 354230) was supplemented with 80 ng/ml of bFGF (R&D Systems, catalog #234-FSE). The A2-SV or an IgG4 E3 antibody (10 μg/ml) or PBS was injected subcutaneously into the abdominal area of NMRI nu/nu mice (150 μl of Matrigel/plug).
In the first assay, two mice were injected with […]™ supplemented with bFGF and soluble VEGFR-1 (10 μg/ml) as a positive control for an angiogenic inhibitor. At day 7 post-implantation mice were anesthetized and perfused through heart with 4% paraformaldehyde (PFA) in phosphate buffered saline (PBS). […]™ plugs and a piece of liver were removed and embedded in paraffin. Sections were cut and stained with hematoxylin and eosin (H&E).
In a second assay, mice were treated as described above, and then anesthetized eight days post-implantation and injected with fluorescein-conjugated tomato (lycopersicon esculentum) lectin (100 μg in 200 μl of PBS; Vector, catalog #FL-1171) into the tail vein. After five min circulation the animals were perfused through the heart with 10 ml of PBS followed by 10 ml of 4% PFA in PBS. […]™ plugs and pieces of kidney and liver were removed and frozen in OCT (Tissue-Tek). Nuclei were visualized on sections by using […]® mounting medium containing DAPI (Vector) and analyzed under fluorescence microscopy.

Tie1 = Tie1 (Homo sapiens, UniProt P35590); assay: Immunohistochemistry of matched human tumor and normal tissue sections; design: from tissue; host or cells: fresh frozen normal and tumor tissue (e.g. lung, kidney, skin, breast); details: 10 μg/ml, fresh frozen tissue
Sequence of Tie1 (P35590 22-1138): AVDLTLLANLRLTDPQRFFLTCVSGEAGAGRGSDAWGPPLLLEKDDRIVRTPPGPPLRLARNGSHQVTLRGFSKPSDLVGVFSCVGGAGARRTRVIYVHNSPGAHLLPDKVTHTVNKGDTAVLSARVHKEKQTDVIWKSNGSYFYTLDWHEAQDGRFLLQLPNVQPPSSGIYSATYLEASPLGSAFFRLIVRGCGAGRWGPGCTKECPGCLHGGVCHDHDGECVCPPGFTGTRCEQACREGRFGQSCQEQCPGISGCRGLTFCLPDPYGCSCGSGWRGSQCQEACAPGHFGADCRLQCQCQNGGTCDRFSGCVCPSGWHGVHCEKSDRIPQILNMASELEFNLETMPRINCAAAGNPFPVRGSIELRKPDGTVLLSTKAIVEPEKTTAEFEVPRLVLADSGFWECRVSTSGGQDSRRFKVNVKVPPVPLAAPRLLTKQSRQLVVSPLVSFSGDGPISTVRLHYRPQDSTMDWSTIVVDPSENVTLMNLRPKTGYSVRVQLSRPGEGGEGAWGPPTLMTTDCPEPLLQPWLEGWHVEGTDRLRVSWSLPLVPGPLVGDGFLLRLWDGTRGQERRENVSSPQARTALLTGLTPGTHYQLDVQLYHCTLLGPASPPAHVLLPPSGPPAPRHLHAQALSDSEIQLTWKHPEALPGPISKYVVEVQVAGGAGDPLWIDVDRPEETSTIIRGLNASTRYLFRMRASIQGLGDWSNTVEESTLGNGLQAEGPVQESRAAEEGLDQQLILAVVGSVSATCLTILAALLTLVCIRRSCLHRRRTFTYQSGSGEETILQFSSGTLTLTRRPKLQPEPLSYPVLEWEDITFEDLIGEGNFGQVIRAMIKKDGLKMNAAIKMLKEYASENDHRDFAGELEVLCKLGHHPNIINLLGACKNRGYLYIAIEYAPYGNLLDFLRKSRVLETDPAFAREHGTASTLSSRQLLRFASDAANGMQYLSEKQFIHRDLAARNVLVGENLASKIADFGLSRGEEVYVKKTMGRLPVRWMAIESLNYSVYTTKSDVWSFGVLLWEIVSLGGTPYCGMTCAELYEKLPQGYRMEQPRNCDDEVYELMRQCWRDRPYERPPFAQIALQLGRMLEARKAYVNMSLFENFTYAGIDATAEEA
Method: The Tie-1 antibodies were biotinylated using the EZ-link Sulfo-NHS-SS-Biotin (Pierce, Cat. 21331). For Tie-1/Fc and Tie-1-His, the reaction was performed for 2 hours on ice in 50 mM sodium carbonate buffer, pH 9.6, in the presence of a 5-fold molar excess of biotinylating agent. For the antibodies, the reaction was performed for 2 hours on ice in PBS, in the presence of a 15-fold molar excess of EZ-link Sulfo-NHS-SS-Biotin. The reaction was stopped by the addition of Tris-HCl, pH 7.5 (50 mM final concentration) followed by a 1-hour incubation on ice. Samples were then dialyzed against PBS.
Various normal and tumor tissue sections were stained with biotinylated antibodies. A mouse monoclonal anti-Tie1 antibody (7e8) (Alitalo laboratory, University of Helsinki) was used as a positive control. Sections without primary antibody served as negative control. All samples were fresh frozen tissues and staining was performed with the TSA-kit (Perkin-Elmer Life Sciences). After acetone fixation (10-20 min, −20° C.) the slides were treated with 0.73% H2O2 for 10 min to reduce endogenous peroxidase activity followed by blocking for 30 min with TNB buffer. Sections ([…] thick) were incubated with primary antibodies (10 μg/ml) overnight at 4° C. Sections with the mouse monoclonal anti-tie1 antibody (7e8) were treated with biotinylated anti-mouse antibodies (VectaStain) before the addition of streptavidin-HRP. Signal was amplified by using a TSA kit and the visualized by AEC (235 ml NaAc, 15 ml AEC (stock solution: 1600 mg 3-amino-9-ethyl-carbazole and 480 ml N-dimethylformamide), 250 μl H2O2).

[3] = target: T1, Tie1-EpoR chimeric receptor (UniProt P14753+P35590); assay: Ba/F3 bioassay (Tie1/EpoR chimeric BaF3 cell assay), MTT viability; type: cell-based, human; details: 100 ng/ml E3 IgG together with 100 (1:1) or 500 (1:5) ng/ml of the other antibody
T1 construct: the PCR amplified extracellular part of human Tie1 (bp 37-2316 of X60975); expressed in transfected cells
T1 sequence (P35590+P14753 with tags, fused parts or gaps): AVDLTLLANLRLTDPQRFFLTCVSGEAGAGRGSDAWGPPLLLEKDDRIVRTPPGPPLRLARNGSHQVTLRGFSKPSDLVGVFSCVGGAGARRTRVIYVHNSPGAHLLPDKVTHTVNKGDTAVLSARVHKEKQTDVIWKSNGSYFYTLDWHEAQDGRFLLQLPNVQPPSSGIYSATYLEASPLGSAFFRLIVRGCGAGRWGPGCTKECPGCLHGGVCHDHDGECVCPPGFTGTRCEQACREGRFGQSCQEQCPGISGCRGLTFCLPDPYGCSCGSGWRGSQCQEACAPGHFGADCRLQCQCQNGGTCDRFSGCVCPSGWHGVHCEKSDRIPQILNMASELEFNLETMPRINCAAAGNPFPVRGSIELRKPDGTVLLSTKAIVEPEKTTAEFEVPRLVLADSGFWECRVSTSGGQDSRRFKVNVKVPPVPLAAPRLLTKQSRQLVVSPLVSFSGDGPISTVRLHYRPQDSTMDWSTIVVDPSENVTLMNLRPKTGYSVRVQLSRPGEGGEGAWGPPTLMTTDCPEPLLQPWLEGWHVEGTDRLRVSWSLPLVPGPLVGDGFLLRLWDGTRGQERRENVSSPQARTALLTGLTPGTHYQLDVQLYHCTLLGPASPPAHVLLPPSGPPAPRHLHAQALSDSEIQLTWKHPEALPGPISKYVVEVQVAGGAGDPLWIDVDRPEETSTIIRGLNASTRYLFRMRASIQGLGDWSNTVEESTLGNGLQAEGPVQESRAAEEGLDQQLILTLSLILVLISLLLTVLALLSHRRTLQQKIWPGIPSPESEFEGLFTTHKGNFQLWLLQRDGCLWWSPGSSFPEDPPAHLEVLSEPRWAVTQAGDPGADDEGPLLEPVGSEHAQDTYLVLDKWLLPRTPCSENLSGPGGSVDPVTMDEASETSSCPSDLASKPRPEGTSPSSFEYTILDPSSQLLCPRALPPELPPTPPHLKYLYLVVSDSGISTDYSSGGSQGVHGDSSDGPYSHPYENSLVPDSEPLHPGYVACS
From the text: To generate Tie1-EpoR expressing Ba/F3 cells for the bioassay, Ba/F3 pre-B cells were stably transfected with a nucleic acid that expresses chimeric receptor containing the extracellular domain of human Tie1 fused with the transmembrane and cytoplasmic domains of the mouse erythropoietin receptor. The nucleic acid used was a Tie1-EpoR chimeric cDNA in a pEF-BOS expression vector. The nucleic acid encoding the chimeric receptor was constructed by cloning the PCR amplified extracellular part of human Tie1 (bp 37-2316 of X60975) as EcoRI-BglII fragment into mEpoR-pcDNA vector. The cDNA encoding for the chimeric receptor consisting of the extracellular part of Tie1 fused with the transmembrane and intracellular domains of EpoR was subcloned into the pEF-BOS expression vector. Vector was linearized and co-transfected into Ba/F3 cells with pcDNA3.1(+) Zeo vector (Invitrogen). Stable cell pools were generated by selection with 250 μg/ml Zeocin. The expression of Tie1/EpoR fusion protein in several clones was analyzed by Western blotting with an antibody against EpoR.
To perform the assays, Ba/F3 cells expressing the Tie 1-EpoR chimera were split in 96-well microtiter plates at 50 000 cells/well in the presence of the indicated concentrations of anti-Tie1 antibodies. As controls, Zeocin resistant pools not expressing the Tie1-EpoR were used. After 48 h, the viability of the cells was determined by adding MTT (3-(4,5-dimethylthiazol-2-yl)-2,5-diphenyl tetrazolium bromide (Sigma), 0.5 mg/ml), followed by further 2 h of culture, addition of an equal volume of cell lysis solution (10% SDS, 10 mM HCl) and incubation overnight at 37° C. Absorbance was measured at 540 nm.
Although no ligand for Tie1 has been identified, we used the following efficient screening method for Tie1-binding proteins. Interleukin-3 dependent pre-B-lymphocyte (Ba/F3) cells were transfected with a construct that expresses a Tie1-EpoR fusion protein. Since Ba/F3 cells are IL-3 dependent, they die unless IL-3 is provided. However, Tie-EpoR receptor expressing Ba/F3 cells can survive and proliferate if the medium contains a Tie1-binding protein, either a natural ligand or an artificial mimetic. Cell survival can be quantitated, e.g., by colorimetric MTT-assay, which measures mitochondrial activity.

Molecule: N.N.[Cl][Pt][Cl] [cisplatin, reference compound]
Tumor Weight ([1]; 5 days after cell injection (before treatment start at day 12)): 48 mg
Tumor Weight ([1]; 9 days after cell injection (before treatment start at day 12)): 69 mg
Tumor Weight ([1]; 12 days after cell injection (treatment start)): 137 mg
Tumor Weight ([1]; 15 days after cell injection): 185 mg
Tumor Weight ([1]; 19 days after cell injection): 207 mg
Tumor Weight ([1]; 22 days after cell injection): 235 mg
Tumor Weight ([1]; 26 days after cell injection): 310 mg
Tumor Weight ([1]; 28 days after cell injection): 363 mg

B1: soluble VEGFR1: soluble VEGFR-1 (10 μg/ml), positive control for an angiogenic inhibitor (protein, UniProt P17948 27-758, looked up)
extracellular domain: SKLKDPELSLKGTQHIMQAGQTLHLQCRGEAAHKWSLPEMVSKESERLSITKSACGRNGKQFCSTLTLNTAQANHTGFYSCKYLAVPTSKKKETESAIYIFISDTGRPFVEMYSEIPEIIHMTEGRELVIPCRVTSPNITVTLKKFPLDTLIPDGKRIIWDSRKGFIISNATYKEIGLLTCEATVNGHLYKTNYLTHRQTNTIIDVQISTPRPVKLLRGHTLVLNCTATTPLNTRVQMTWSYPDEKNKRASVRRRIDQSNSHANIFYSVLTIDKMQNKDKGLYTCRVRSGPSFKSVNTSVHIYDKAFITVKHRKQQVLETVAGKRSYRLSMKVKAFPSPEVVWLKDGLPATEKSARYLTRGYSLIIKDVTEEDAGNYTILLSIKQSNVFKNLTATLIVNVKPQIYEKAVSSFPDPALYPLGSRQILTCTAYGIPQPTIKWFWHPCNHNHSEARCDFCSNNEESFILDADSNMGNRIESITQRMAIIEGKNKMASTLVVADSRISGIYICIASNKVGTVGRNISFYITDVPNGFHVNLEKMPTEGEDLKLSCTVNKFLYRDVTWILLRTVNNRTMHYSISKQKMAITKEHSITLNLTIMNVSLQDSGTYACRARNVYTGEEILQKKEITIRDQEAPYLLRNLSDHTVAISSSTTLDCHANGVPEPQITWFKNNHKIQQEPGIILGPGSSTLFIERVTEEDEGVYHCKATNQKGSVESSAYLTVQGTSDKSNLE
modifications: extracellular domain
vessel-like structures in MATRIGEL plugs (H&E staining) [2]: neither modification of the matrix nor organization of the cells

staining of lung carcinoma (Tie1): stained structures other than vessels
staining of normal lung (large veins) (Tie1): faint staining
staining of normal skin (Tie1): stained blood vessels very faintly
staining of veins and capillaries of mammary tissue (breast) (Tie1): stained those structures rather faintly
B2: D11: anti-Tie1 antibody; VH SEQ ID NO:84, VL SEQ ID NO:86 (antibody, V domains shown)
VH: EVQLLESGGGLVQPGGSLRLSCAASGFTFSGYAMWWVRQAPGKGLEWVSSISPSGGATAYADSVKGRFTISRDNSKNTLYLQMNSLRAEDTAVYYCARDAGSYYWGWFDPWGQGTLVTVSSASTKGPSVFP
VL: HSAQDIQMTQSPATLSLSPGERATLSCRASQSISSYLAWYQQKPGQPPRLLIYDASSRVTGIPARFSGSGFGTDFTLTISSLEPEDFAVYYCLQRSSWPRTFGQGTKLEIK
modifications: Synthetically generated peptide
staining of breast carcinoma (Tie1): stained also other structures in addition to vessels
staining of kidney (Tie1): stained kidney tubules in addition to the vessels
staining of melanoma tissue (Tie1): also stained other surrounding structures
effect on the survival effect of E3 IgG in Tie1-EpoR Ba/F3 assay [3]: completely blocked the viability; also recorded: blocked completely the survival effect of E3 IgG; also recorded: counteract the agonistic activity of E3
